Results reported in the supplement of paper PMC11865577.

Tested on: TO-3-N3 (biotin conjugate)
Assay: pull-down binding Z-score (relative to library population); higher = stronger binding
Details: RNA library: Library-2
In short: (§1)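 The RNA library, end-labelled with Cy5 or Cy3, was heat-folded in phosphate/NaCl/KCl buffer, and 1 μg was incubated at 25 °C for 60 min with streptavidin beads carrying 100 pmol of biotin-conjugated small molecule. Hot SDS released the bound RNA, which was then hybridised to a DNA barcode microarray for 20 h at 55.5 °C. For scoring binding, signal from beads alone was subtracted, replicate barcoded probes were averaged after discarding the highest and lowest, and each value was turned into a Z-score from the library mean and standard deviation.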

Sequence | pull-down binding Z-score
GGACCCUCUCUCUACCUCU [hsa-mir-4315-1_4315-2] | -0.211
GGACGUCACCACCAUGGCC [hsa-mir-650] | 0.0495
GGACUCAGCCCUGUGCUGAGCCC [hsa-mir-5587] | 0.722
GGACUUGCGGUUCA [hsa-mir-8057] | -0.0023
GGAGAAGACUUUUCCUUUCCUCC [hsa-mir-4660] | -0.1
GGAGACACUUUCACUAUAUAUAGUGGCUCC [hsa-mir-3156-2] | -0.948
GGAGACACUUUUACUAUAUAUAGUGGCUCC [hsa-mir-3156-1] | -1.09
GGAGACCCUAUACAUACCUGUUUCC [hsa-mir-5581] | -0.408
GGAGACGGGUCUUUCUC [hsa-mir-1208] | 0.816
GGAGAGGAUCCACCUGUCCUGUCC [hsa-mir-6165] | 0.416
GGAGAGUAUGGUCACAGCAGCAUCCUCC [hsa-mir-6780a] | -0.0714
GGAGAUCGUACC [hsa-mir-4430] | -0.109
GGAGAUUGGAGUGGCCAGUGUUCCUAAACAAUUC [hsa-mir-4263] | 0.0793
GGAGCAGACAGACCCAACCUCAUGCUCC [hsa-mir-6763] | 0.0429
GGAGCCCGAGCAGCCGCGGUGAA [hsa-mir-7706] | 1.29
GGAGCCUUCCCCAGAGGAGUCAGGCC [hsa-mir-4312] | 0.273
GGAGCUCAGCACCUGCCUGCCACCCACGCAGACCAGCCCCUGCUCUGUUCCCACAG [hsa-mir-4648] | 0.85
GGAGCUCUGUCCUGUCUCACUCAUUGCUCC [hsa-mir-6749] | -0.331
GGAGCUCUGUGCCUUUGGGUCCUGGUGAGCUCU [hsa-mir-6070] | 0.271
GGAGCUGGCUGCUGGCCUCAGUUCU [hsa-mir-5001] | -0.269
GGAGGCACUGCCAGGGCUGCCCAC [hsa-mir-1202] | 0.521
GGAGGCAUGAAUGAGCCAUCUUUCCAAUGCCUUUC [hsa-mir-4743] | -0.573
GGAGGCCCCGCCCUGCUGCCGACCCUGUGGAGCGGAGGGUGAAGCCUCC [hsa-mir-3180-5] | 0.326
GGAGGCCCCGCUCUGCUGCCGACCCUGUGGAGCGGAGGGUGAAGCCUCC [hsa-mir-3180-4] | 0.3
GGAGGGUGAGCUUUCUGAAAACCCCUCC [hsa-mir-188] | 0.345
GGAGUCCUCUAGACACC [hsa-mir-6510] | 0.483
GGAGUUGAUGCACAGUUAUCCAGCUCC [hsa-mir-337] | -0.577

Sequence | pull-down binding Z-score
GGAUAAGAAUCAGUCAC [hsa-mir-217] | -0.334
GGAUAGAAACUAUUAUUCUAUUC [hsa-mir-664a] | -0.357
GGAUCAUGUUUGCCCCCGUGGACAGCUCUCUGGUGUGCUCCUCCUGCCAUCCUGCCCACCCCUGCAUAAUGCUGCUUC [hsa-mir-6809] | 0.306
GGAUCCCAGAUCAAACCAGGCCC [hsa-mir-331] | -0.36
GGAUGAAAGUCAAAGAAUCC [hsa-mir-1262] | 1.25
GGAUGGCCAGGGAAGUAUGCCGGGCCUUGGCAUUUC [hsa-mir-7159] | 0.218
GGAUGGGAGACCUGACCCAUCC [hsa-mir-5195] | -0.0606
GGAUGUGUUGACCCCUGAAGUGGUUCUGAUGACCUUUCC [hsa-mir-6883] | 0.00863
GGAUUUGCUUCCUGUCACAAAUCA [hsa-mir-23a] | 0.391
GGCACCUACGAUACCCAGUGCC [hsa-mir-3116-2] | -0.264
GGCACUGGGUAUCGUAGGUGCC [hsa-mir-3116-1] | 0.661
GGCAGAAAUGUC [hsa-mir-8053] | -0.653
GGCAGGAGGCAGUGAAGUAACUUGC [hsa-mir-3934] | 1
GGCAGGGGGAGCUGCAGGGCUAUGGGAGGGGCCCCAGCGUCUGA [hsa-mir-1233-2_1233-1] | 3.54
GGCAGGGUCCUCCAGCUCAUUCCUCCUGCC [hsa-mir-6829] | 0.564
GGCAGGUGCCUCCGUGUUGCCGAACCCUCCU [hsa-mir-6761] | 0.358
GGCAGGUGUGGUUGGAGGAAGCAGCCUGAACCUGCC [hsa-mir-6778] | -0.114
GGCAGUGGUUCUAAAAGCUGUC [hsa-mir-3618] | 0.861
GGCAUCAGAGGACAGCCGCCUGGUGCC [hsa-mir-4641] | 0.287
GGCAUCCCCAUUGCU [hsa-mir-4304] | 0.527
GGCAUCUAGCACAGGCGGUAGAUGCU [hsa-mir-4486] | -0.546
GGCAUCUAGGCUGUGCACAGUGACGCC [hsa-mir-4749] | -0.604
GGCCACCCAGGGAGUAAGUAGCC [hsa-mir-4480] | 2.34
GGCCAUCUGCUAUUCGUCCACCAACCUGACUUGAUCC [hsa-mir-7111] | -0.0213
GGCCAUCUGGCC [hsa-mir-4252] | -0.403
GGCCCCAGGAAGAAGGGCCUGGUGGAGCC [hsa-mir-6743] | 0.235
GGCCGGUCAGGCA [hsa-mir-4689] | 0.391

Tested on: TO-3-N3-2 (biotin conjugate)
Assay: as above
Details: RNA library: Library-2
In short: as §1

Sequence | pull-down binding Z-score
GCUUCUGCUGCAUGAUCUCCGAGUCCCUGGGGGUAGAGAUGAUGGGGCACUGGGAGGU [hsa-mir-1282] | 0.312
GCUUGCUGUACAUAACUCAAUAGCCGGAAGC [hsa-mir-129-2] | -0.316
GCUUGCUGUUCCUCUCAACAGUAGUCAGGAAGC [hsa-mir-129-1] | -0.186
GCUUGGAGCCUUGGUAGGGAAGCAAGCUGAGGAGAUAGGA [hsa-mir-7154] | 0.627
GCUUUAUGUCCUGACCCAGCUAAAGC [hsa-mir-22] | -0.246
GCUUUCUGUGGUCAGAAAGAAAAGCAAGU [hsa-mir-520f] | 0.704
GCUUUUCACCUGUGAUCCCAGGAGAGGAAGC [hsa-mir-646] | -0.0622
GGAAACUGAGACUUUGUAACUAUGUCUCAGUCUCA [hsa-mir-452] | -0.296
GGAAAGGGGAUGCAGAGCCCUGCC [hsa-mir-4647] | 0.526
GGAACACUAUAUUAAUCAGGUUUCC [hsa-mir-6509] | -0.256
GGAAGAAGGCUGAGGGAGAUGCCUUCUUCC [hsa-mir-6512] | -0.106
GGAAGACACAUGAGCAGUGCCUCCACUUCACGCCUCUCCC [hsa-mir-6780b] | 0.0363
GGAAGGGAGCCCCAUUUACAGUGGUAACUUCCUUUCC [hsa-mir-5006] | 0.679
GGAAGGGCGCCUGUGCUUCGUCC [hsa-mir-572] | -0.215
GGAAUAGUGCUCCUGGUUGUUUC [hsa-mir-1180] | -0.353
GGAAUCCUACGUGAGGGACAAUCAUUCAGACCCACGUAGCAGUGUUCU [hsa-mir-1299] | 0.392
GGACAGGGAUUCUUUUCACUGUU [hsa-mir-599] | 0.0302
GGACAUCCUUCCAUAGUAAAUAAGCGGUGCC [hsa-mir-8064] | 0.131

Sequence | pull-down binding Z-score
GGACCCUCUCUCUACCUCU [hsa-mir-4315-1_4315-2] | -0.12
GGACGUCACCACCAUGGCC [hsa-mir-650] | 0.247
GGACUCAGCCCUGUGCUGAGCCC [hsa-mir-5587] | -0.313
GGACUUGCGGUUCA [hsa-mir-8057] | -0.281
GGAGAAGACUUUUCCUUUCCUCC [hsa-mir-4660] | -0.212
GGAGACACUUUCACUAUAUAUAGUGGCUCC [hsa-mir-3156-2] | -0.571
GGAGACACUUUUACUAUAUAUAGUGGCUCC [hsa-mir-3156-1] | -0.555
GGAGACCCUAUACAUACCUGUUUCC [hsa-mir-5581] | -0.187
GGAGACGGGUCUUUCUC [hsa-mir-1208] | 0.466
GGAGAGGAUCCACCUGUCCUGUCC [hsa-mir-6165] | -0.113
GGAGAGUAUGGUCACAGCAGCAUCCUCC [hsa-mir-6780a] | -0.326
GGAGAUCGUACC [hsa-mir-4430] | -0.372
GGAGAUUGGAGUGGCCAGUGUUCCUAAACAAUUC [hsa-mir-4263] | 0.226
GGAGCAGACAGACCCAACCUCAUGCUCC [hsa-mir-6763] | -0.471
GGAGCCCGAGCAGCCGCGGUGAA [hsa-mir-7706] | 0.551
GGAGCCUUCCCCAGAGGAGUCAGGCC [hsa-mir-4312] | -0.0198
GGAGCUCAGCACCUGCCUGCCACCCACGCAGACCAGCCCCUGCUCUGUUCCCACAG [hsa-mir-4648] | 0.329
GGAGCUCUGUCCUGUCUCACUCAUUGCUCC [hsa-mir-6749] | -0.272
